Laboratory results: paper PMC11717359, “A new pipeline SPICE identifies novel JUN-IKZF1 composite elements”

Legend:
[1] = target: c-JUN, recombinant;c-FOS, recombinant (Homo sapiens;Homo sapiens, UniProt P05412;P01100 1-331;1-380, |); assay: EMSA; 300 ng AP1; EMSA per LI-COR kit protocol (829-07910), 100 nM IR700 probe, 4-12% TBE gel in 0.5x TBE; binding buffer, pH and temperature not stated; details: protein: commercial;commercial; tags: ;; copies: 1;1; label: IRDye 700
[2] = target: IKZF1 (Ikaros), recombinant;c-JUN, recombinant;c-FOS, recombinant (Homo sapiens;Homo sapiens;Homo sapiens, UniProt Q13422;P05412;P01100 1-519;1-331;1-380, ||); assay: EMSA; 300 ng AP1 + 1 ug IKZF1; stronger than AP1 alone; EMSA per LI-COR kit protocol (829-07910), 100 nM IR700 probe, 4-12% TBE gel in 0.5x TBE; binding buffer, pH and temperature not stated; details: protein: commercial;commercial;commercial; tags: ;;; label: IRDye 700
Sequence of IKZF1 (Ikaros), recombinant;c-JUN, recombinant;c-FOS, recombinant (Q13422 whole entry, chain 1 of 3): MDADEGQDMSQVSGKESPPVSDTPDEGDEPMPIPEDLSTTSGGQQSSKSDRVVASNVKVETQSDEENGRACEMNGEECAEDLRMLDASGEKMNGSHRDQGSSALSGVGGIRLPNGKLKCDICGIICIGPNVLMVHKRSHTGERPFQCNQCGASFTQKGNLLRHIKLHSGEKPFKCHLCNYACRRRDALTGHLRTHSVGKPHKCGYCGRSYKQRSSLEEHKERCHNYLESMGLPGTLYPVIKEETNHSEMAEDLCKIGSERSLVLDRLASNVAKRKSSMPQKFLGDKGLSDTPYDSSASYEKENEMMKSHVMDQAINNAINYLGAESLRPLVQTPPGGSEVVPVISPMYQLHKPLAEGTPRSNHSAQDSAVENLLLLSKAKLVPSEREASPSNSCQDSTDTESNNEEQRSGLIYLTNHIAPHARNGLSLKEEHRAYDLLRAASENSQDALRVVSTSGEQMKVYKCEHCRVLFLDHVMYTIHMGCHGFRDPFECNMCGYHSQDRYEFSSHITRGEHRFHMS
Sequence of IKZF1 (Ikaros), recombinant;c-JUN, recombinant;c-FOS, recombinant (P05412 whole entry, chain 2 of 3): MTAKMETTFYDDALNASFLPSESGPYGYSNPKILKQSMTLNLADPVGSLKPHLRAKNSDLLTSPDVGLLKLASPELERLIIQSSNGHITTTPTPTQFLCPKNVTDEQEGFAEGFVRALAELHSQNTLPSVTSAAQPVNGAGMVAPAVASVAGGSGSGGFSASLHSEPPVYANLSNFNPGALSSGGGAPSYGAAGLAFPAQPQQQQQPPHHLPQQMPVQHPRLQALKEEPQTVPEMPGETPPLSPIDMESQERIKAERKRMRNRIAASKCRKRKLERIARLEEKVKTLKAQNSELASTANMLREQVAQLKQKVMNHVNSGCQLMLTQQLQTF
Sequence of IKZF1 (Ikaros), recombinant;c-JUN, recombinant;c-FOS, recombinant (P01100 whole entry, chain 3 of 3): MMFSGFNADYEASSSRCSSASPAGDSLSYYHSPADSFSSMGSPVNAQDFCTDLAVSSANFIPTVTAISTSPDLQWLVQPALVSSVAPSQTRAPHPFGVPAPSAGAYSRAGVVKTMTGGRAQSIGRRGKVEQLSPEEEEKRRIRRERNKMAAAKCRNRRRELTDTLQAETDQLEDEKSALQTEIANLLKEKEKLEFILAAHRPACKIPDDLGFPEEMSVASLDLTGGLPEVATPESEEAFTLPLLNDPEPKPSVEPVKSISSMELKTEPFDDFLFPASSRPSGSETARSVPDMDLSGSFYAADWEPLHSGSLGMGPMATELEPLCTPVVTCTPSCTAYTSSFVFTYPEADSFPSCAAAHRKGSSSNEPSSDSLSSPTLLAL

Sequence of c-JUN, recombinant;c-FOS, recombinant (P05412 whole entry, chain 1 of 2): as the sequence (P05412 whole entry, chain 2 of 3) above
Sequence of c-JUN, recombinant;c-FOS, recombinant (P01100 whole entry, chain 2 of 2): as the sequence (P01100 whole entry, chain 3 of 3) above

B1: IL10 CNS9 WT probe (dsDNA)
DNA 1: GAGGTTGCAGTTTCGTTGTGAGTCAGGCCTGCTGA
DNA 2: TCAGCAGGCCTGACTCACAACGAAACTGCAACCTC
binding result [1]: binds
binding result [2]: binds
